T1: full length recombinant MPP1 (human, UniProt Q00013 1-466)
T1 construct: MPP1 (p55), human erythroid, full length; also called p55; MPP1(p55)
T1 sequence (looked up): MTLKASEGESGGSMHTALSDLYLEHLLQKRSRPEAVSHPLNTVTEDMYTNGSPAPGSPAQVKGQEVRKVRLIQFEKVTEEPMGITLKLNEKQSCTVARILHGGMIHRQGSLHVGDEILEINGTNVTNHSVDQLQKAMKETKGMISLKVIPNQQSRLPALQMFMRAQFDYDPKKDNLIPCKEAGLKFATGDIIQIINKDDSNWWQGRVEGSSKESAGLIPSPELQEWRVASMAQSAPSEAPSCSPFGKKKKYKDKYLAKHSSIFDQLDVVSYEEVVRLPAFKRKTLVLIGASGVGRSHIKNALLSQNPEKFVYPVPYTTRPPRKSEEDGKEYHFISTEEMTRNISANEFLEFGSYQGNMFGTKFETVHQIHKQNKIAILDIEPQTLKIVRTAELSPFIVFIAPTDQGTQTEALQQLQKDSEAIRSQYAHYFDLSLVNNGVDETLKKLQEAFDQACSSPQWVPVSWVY

B1: MPP1-Mut4 (residues 231–466) (domain or fragment, human, UniProt Q00013 231-466, looked up)
chain: MAQSAPSEAPSCSPFGKKKKYKDKYLAKHSSIFDQLDVVSYEEVVRLPAFKRKTLVLIGASGVGRSHIKNALLSQNPEKFVYPVPYTTRPPRKSEEDGKEYHFISTEEMTRNISANEFLEFGSYQGNMFGTKFETVHQIHKQNKIAILDIEPQTLKIVRTAELSPFIVFIAPTDQGTQTEALQQLQKDSEAIRSQYAHYFDLSLVNNGVDETLKKLQEAFDQACSSPQWVPVSWVY
notes: MPP1 (p55), human, residues 231-466; A FLAG form (p3XFLAG-CMV-10) was expressed in HEL cells for the functional tests only
B2: MPP1-Mut3 (residues 211–292) (domain or fragment, human, UniProt Q00013 211-292, looked up)
chain: SKESAGLIPSPELQEWRVASMAQSAPSEAPSCSPFGKKKKYKDKYLAKHSSIFDQLDVVSYEEVVRLPAFKRKTLVLIGASG
notes: MPP1 (p55), human, residues 211-292
B3: recombinant His-tagged flotillin 2 (natural protein, UniProt Q14254 1-428, looked up)
chain: MGNCHTVGPNEALVVSGGCCGSDYKQYVFGGWAWAWWCISDTQRISLEIMTLQPRCEDVETAEGVALTVTGVAQVKIMTEKELLAVACEQFLGKNVQDIKNVVLQTLEGHLRSILGTLTVEQIYQDRDQFAKLVREVAAPDVGRMGIEILSFTIKDVYDKVDYLSSLGKTQTAVVQRDADIGVAEAERDAGIREAECKKEMLDVKFMADTKIADSKRAFELQKSAFSEEVNIKTAEAQLAYELQGAREQQKIRQEEIEIEVVQRKKQIAVEAQEILRTDKELIATVRRPAEAEAHRIQQIAEGEKVKQVLLAQAEAEKIRKIGEAEAAVIEAMGKAEAERMKLKAEAYQKYGDAAKMALVLEALPQIAAKIAAPLTKVDEIVVLSGDNSKVTSEVNRLLAELPASVHALTGVDLSKIPLIKKATGVQV
notes: flotillin 2; also called FL2
B4: MPP1-Mut2 (residues 151–237) (domain or fragment, human, UniProt Q00013 151-237, looked up)
chain: NQQSRLPALQMFMRAQFDYDPKKDNLIPCKEAGLKFATGDIIQIINKDDSNWWQGRVEGSSKESAGLIPSPELQEWRVASMAQSAPS
notes: MPP1 (p55), human, residues 151-237
B5: endogenous MPP1 (HEL cells) (natural protein)
chain: T1 sequence (looked up)
B6: recombinant His-tagged flotillin 1 (natural protein, UniProt O75955-1 1-427, looked up)
chain: MFFTCGPNEAMVVSGFCRSPPVMVAGGRVFVLPCIQQIQRISLNTLTLNVKSEKVYTRHGVPISVTGIAQVKIQGQNKEMLAAACQMFLGKTEAEIAHIALETLEGHQRAIMAHMTVEEIYKDRQKFSEQVFKVASSDLVNMGISVVSYTLKDIHDDQDYLHSLGKARTAQVQKDARIGEAEAKRDAGIREAKAKQEKVSAQYLSEIEMAKAQRDYELKKAAYDIEVNTRRAQADLAYQLQVAKTKQQIEEQRVQVQVVERAQQVAVQEQEIARREKELEARVRKPAEAERYKLERLAEAEKSQLIMQAEAEAASVRMRGEAEAFAIGARARAEAEQMAKKAEAFQLYQEAAQLDMLLEKLPQVAEEISGPLTSANKITLVSSGSGTMGAAKVTGEVLDILTRLPESVERLTGVSISQVNHKPLRTA
notes: flotillin 1; the discussion speaks of bacterially expressed proteins; also called FL1

Legend:
[1] = biological target: B6; assay: SPR; His-tagged flotillin 1 or 2 captured on a Ni-NTA sensor chip (about 4000 RU), BIAcore T200; untagged MPP1 or its truncated mutants as analytes (at least five concentrations, 50-2000 nM), association 360 s, dissociation 600 s; HBS-T; global fit, 1:1 Langmuir model with mass transport step; conditions: both partners purified
[2] = biological target: B3; assay: as above; conditions: both partners purified
[3] = biological target: T1, full length recombinant MPP1; assay: as above; conditions: both partners purified
[4] = biological target: B3; assay: as above; conditions: both partners purified; remark: listed apart in the source
[5] = biological target: flotillins (endogenous, HEL cells)
[6] = biological target: flotillins (endogenous, HEL cells); remark: listed apart in the source

Kd [1] [nM]	koff [1] [s⁻¹]	kon [1] [M⁻¹ s⁻¹]	Kd [2] [nM]	koff [2] [s⁻¹]	kon [2] [M⁻¹ s⁻¹]	Kd [3] [nM]	koff [3] [s⁻¹]	kon [3] [M⁻¹ s⁻¹]	Kd [4] [nM]	fluorescence lifetime of di-4-ANEPPDHQ (FLIM) in the plasma membrane of HEL cells transfected with MPP1-Mut4-FLAG (~ 3.83 ns) compared to FLAG control (~ 3.98 ns) [5] [ns]	reduction of the pERK1/2 level after insulin stimulation in HEL cells transfected with MPP1-Mut4 compared to FLAG control [6] [%]	Binder
39.2	0.000319	8130	50.2	0.000281	5600	–	–	–	–	–	–	B1
137	0.000515	3750	199	0.000828	4170	–	–	–	–	–	–	B2
–	–	–	–	–	–	31	0.00128	41300	–	–	–	B3
702	0.00118	1680	982	0.0016	1630	–	–	–	686	–	–	B4
–	–	–	–	–	–	–	–	–	–	0.15	46	B5
–	–	–	–	–	–	22.8	0.00103	45000	–	–	–	B6

Source: paper PMC8292550, “Molecular characterization of direct interactions between MPP1 and flotillins” (Scientific Reports, 2021)
